Results reported in publication PMC8158039.

Biological target: Recombinant human neonatal Fc receptor (FcRn) (human) (UniProt P55899)
Assay: SPR

fold of KD against adalimumab: 4 fold
Substance: Etanercept (from UniProt P20333 23-257) (Fc fusion)
